In paper PMC4437028 (2015) one finds response data, which are given here for 5 variants.

To fix the notation:
B1: mouse PTPδ Ig1-Fn1 (residues 28-418), splice variant meA9B+ [modified: N-linked glycans] [mouse] / mouse Slitrk2 LRR1 (first leucine-rich repeat of Slit and Trk-like family member 2), wild type [modified: N-linked glycans; N-linked … (parent complex)
chain 1: ETPPRFTRTPVDQTGVSGGVASFICQATGDPRPKIVWNKKGKKVSNQRFEVIEFDDGSGSVLRIQPLRTPRDEAIYECVASNNVGEISVSTRLTVLREDQIPRGFPTIDMGPQLKVVERTRTATMLCAASGNPDPEITWFKDFLPVDTSNNNGRIKQLRSESIGGTPIRGALQIEQSEESDQGKYECVATNSAGTRYSAPANLYVRELREVRRVPPRFSIPPTNHEIMPGGSVNITCVAVGSPMPYVKWMLGAEDLTPEDDMPIGRNVLELNDVRQSANYTCVAMSTLGVIEAIAQITVKALPKPPGTPVVTESTATSITLTWDSGNPEPVSYYIIQHKPKNSEEPYKEIDGIATTRYSVAGLSPYSDYEFRVVAVNNIGRGPASEPVLTQK
chain 2: MLSGVWFLSVLTVAGILQTESRKTAKDICKIRCLCEEKENVLNINCENKGFTTVSLLQPPQYRIYQLFLNGNLLTRLYPNEFVNYSNAVTLHLGNNGLQEIRPGAFSGLKTLKRLHLNNNKLEVLREDTFLGLESLEYLQADYNYISTIEAGAFSKLNKLKVLILNDNLLLSLPSNVFRFVLLTHLDLRGNRLKVMPFAGVLEHIGGIMEIQLEENPWNCTCDLLPLKAWLDTITVFVGEIVCETPFRLHGKDVTQLTRQDLCPRK

The experiment covers variants of B1. The experiment is described as follows: SPR equilibrium analysis; point at 4 µM PTPδ Ig1-Fn1 (highest concentration); parent: 600; read off a plot.
As to chain 2 D167A, the response is approximately 100 Response unit.

Regarding chain 2 R114A, the response was approximately 490 Response unit.

chain 2 F247A, chain 2 H250A: the response was approximately 460 Response unit.

chain 2 D187A: the response was approximately 120 Response unit.

For the variant chain 2 E215A, the response is approximately 210 Response unit.
